Data on one molecule can be found in PMC8229658 (Viruses, 2021).

In the experiment the target is T1, Flag-tagged human RuvBL2 (recombinant) (human, UniProt Q9Y230 1-463).
T1 construct: also called Flag-RuvBL2
The experiment can be described thus: pull-down. To be noted: both partners purified.

T1 sequence (Q9Y230 whole entry): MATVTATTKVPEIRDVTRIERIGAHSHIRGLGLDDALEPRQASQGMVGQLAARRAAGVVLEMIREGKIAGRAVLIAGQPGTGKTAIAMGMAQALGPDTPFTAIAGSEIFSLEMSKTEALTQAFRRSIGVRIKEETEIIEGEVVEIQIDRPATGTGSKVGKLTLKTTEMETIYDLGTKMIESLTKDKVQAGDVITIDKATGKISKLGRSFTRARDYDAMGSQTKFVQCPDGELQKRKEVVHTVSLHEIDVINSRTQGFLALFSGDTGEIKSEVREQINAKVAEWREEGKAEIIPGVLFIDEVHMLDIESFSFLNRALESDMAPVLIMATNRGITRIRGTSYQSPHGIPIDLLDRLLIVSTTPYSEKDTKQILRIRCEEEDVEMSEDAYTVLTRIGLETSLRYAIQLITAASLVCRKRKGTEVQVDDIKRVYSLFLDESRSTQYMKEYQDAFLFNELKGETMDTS

B1: GST-tagged RBD (amino acids 1-73) of the NS1 of PR8 virus (domain or fragment)
chain: MDPNTVSSFQVDCFLWHVRKRVADQELGDAPFLDRLRRDQKSLRGRGSTLGLDIETATRAGKQIVERILKEES
notes: also called GST-RBD
As to B1, the binding result is listed as “binds”.
